This is an account of results in paper PMC6335423, “Recurrent activating mutations of PPARγ associated with luminal bladder tumors” (Nature Communications, 2019).

Experiment [1] has as its target T1, PPARγ ligand-binding domain, wild type, His-hPPARγ (231–505) (human, UniProt P37231-1 231-505).
T1 chain: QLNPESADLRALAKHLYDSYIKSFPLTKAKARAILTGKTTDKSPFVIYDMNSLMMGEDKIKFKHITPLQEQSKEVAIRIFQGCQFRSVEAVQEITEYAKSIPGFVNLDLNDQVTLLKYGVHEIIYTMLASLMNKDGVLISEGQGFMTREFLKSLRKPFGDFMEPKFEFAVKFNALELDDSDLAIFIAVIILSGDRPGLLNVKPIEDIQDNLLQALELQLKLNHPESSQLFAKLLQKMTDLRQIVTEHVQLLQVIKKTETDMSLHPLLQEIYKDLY
In words: MST; with rosiglitazone.

Experiment [2] has as its target T2, PPARγ ligand-binding domain, wild type, His-hPPARγ (231–505) (human, UniProt P37231-1 231-505).
T2 construct: Cloned in pET15b; also called PPARγ LBD WT; PPARγ WT; source: E. coli BL21 DE3, purified (Ni-NTA, size exclusion on Superdex 200)
T2 sequence (looked up): T1 chain
Description: MST; no ligand; unlabeled PPARγ LBD (100 µM to 2 nM) titrated into 150 nM fluorescent PGC1α peptide; 20 mM Tris pH 8.0, 200 mM NaCl, 1 mM TCEP, 0.05% Tween 20, 25 °C; apparent Kd. The note with it: both partners purified.

The target in experiment [3] is T1, PPARγ ligand-binding domain, wild type, …. In words: MST; apo (no ligand).
Experiment [4] has the same target. Description: MST; with GW1929.
For experiment [5], the target named is T2, PPARγ ligand-binding domain, wild type, …. In words: native MS; native electrospray MS, 5 µM protein in 200 mM ammonium acetate pH 6.8; GW1929 and coactivator peptide added. The note with it: both partners purified.

One may read the Kd as the concentration at which binding is half-saturated. Read a high Kd as lower affinity.

Ends that are not written are not given here.

B1: fluorescent PGC1α peptide (137-EAEEPSLLKKLLLAPA-152) (peptide)
peptide: EAEEPSLLKKLLLAPA
modifications: also: fluorescent label (dye and position not given here)
notes: PGC1α (PPARGC1A) residues 137-152, NR1 LXXLL motif; also called fluorescently labeled PGC1α peptide; PGC1α NR1 motif; source: bought: Thermo-Fisher (synthetic peptide)
With B1, the equilibrium dissociation constant (Kd) was determined as 1000 nM in experiment [1], 1700 nM in experiment [3] and 380 nM in experiment [4]. Moreover, the binding result in experiment [2] is “binds”.

B2: PGC1α peptide (139-EEPSLLKKLLLAPA-152) (peptide)
peptide: EEPSLLKKLLLAPA
notes: PGC1α (PPARGC1A) residues 139-152; source: synthetic peptide (IGBMC peptide synthesis common facility)
For B2, the binding result in experiment [5] is “binds”.
